Laboratory results reported in patent publication US20060062783A1.

Target: T1, Rat PTH (1-84) (rat)
T1 sequence (peptide): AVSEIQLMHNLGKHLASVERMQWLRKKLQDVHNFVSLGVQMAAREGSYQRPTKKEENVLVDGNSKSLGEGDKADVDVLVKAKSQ
Assay: ELISA on coated peptide; B cell supernatant

B1: anti-PTH mAb 168 (antibody, human IgG2, V domains shown)
VH: EVQLVQSGAEVKKPGESLKISCKGSRYIFTNYWIGWVRQMPGKGLEWMGIIYPGDSDTRYSPSFQGQVTISADMSISTAYLQWSSLKASDTAMYYCARQGDYVWGSFDSWGQGTLVTVSS
VL: DIVMTQTPLSLSVTPGQPASISCKSSQSLLDSDGKTYLYWYLQKPGQPPQLLIYEVSNRFSGVPDRFSGSGSGTDFTLKISRVEAEDVGVYYCMQSIQLWTFGQGTKVEIK
- OD: 0.19 OD450
